B1: Hammerhead Ribozyme (parent)
chain: ACCGGAUGUGCUUUCCGGUCUGAUGAGUCCGUGAGGACGAAACAG

Self-cleavage data for 167 variants are collected here from the RNAGym collection of RNA variant scans (doi:10.7554/elife.80360).

The series covers variants of B1. The experiment in a line: self-cleavage, relative activity (ratio to wild type); higher = more cleavage; co-transcriptional.
Consider U9G A42G, for which the self-cleavage stood at 0.323.
The figure for U9C U24A is 1.29; for U9C U24G it is 0.948; for U9C U24C it is 0.94.
The figure for U9A U19C is 0.535; for U9A U19G it is 0.398; for U9A U19A it is 0.291.
For G8U U19G, the self-cleavage is 0.369.
In the case of G8U U19A it was 0.398.
As to G8U U19C, the self-cleavage was 0.649.
The figure for U9C G45C is 0.648.
As to U9C G45U, the self-cleavage was determined as 0.591.
U9C G45A: the self-cleavage was 0.78.
The figure for U9A C29U is 0.829.
In the case of U9A C29A it was 0.49.
In the case of U9A C29G it was 0.602; in that of U9G A37C, 0.805.
On to U9G A37U, for which the self-cleavage is 0.611.
The figure for U9G A37G is 0.983; for U9A G33A it is 0.92.
As to U9A G33U, the self-cleavage amounted to 0.908.
In the case of U9A G33C it was 0.808; in that of G8U U14G, 0.94; in that of G8U U14C, 1.06.
As to G8U U14A, the self-cleavage came out at 1.15.
The figure for G8U U21A is 0.782; for G8U U21G it is 0.571.
For G8U U21C, the self-cleavage amounted to 0.819.
Regarding U9G C20G, the self-cleavage was found to be 0.422.
As for U9G C20U, the self-cleavage came to 0.468.
The figure for U9G C20A is 0.331; for U9C C30G it is 0.955.
The figure for U9C C30A is 0.902.
U9C C30U: the self-cleavage is 0.709.
In the case of U9G G27U it was 0.329; in that of U9G G27A, 0.449.
In the case of U9G G27C it was 0.455.
The figure for G8U U28C is 1.23.
As to G8U U28A, the self-cleavage is 0.966.
The figure for G8U U28G is 0.789; for U9A U28C it is 0.98.
The figure for U9A U28A is 0.803; for U9A U28G it is 0.823.
The figure for U9A G25U is 0.342; for U9A G25C it is 0.311; for U9A G25A it is 0.345.
As for U9C G10U, the self-cleavage came out at 0.795.
On to U9C G10C, for which the self-cleavage came to 1.07.
The figure for U9C G10A is 1.19.
In the case of U9A U12G it was 0.802; in that of U9A U12A, 1.23.
As to U9A U12C, the self-cleavage came out at 0.947.
In the case of U9C U21G it was 0.72.
In the case of U9C U21C it was 0.718.
The figure for U9C U21A is 0.496; for U9G G35A it is 0.707.
U9G G35U: the self-cleavage came out at 0.64.
For the variant U9G G35C, the self-cleavage came to 0.562.
The figure for U9A A44G is 1.46.
The figure for U9A A44C is 0.523.
As for U9A A44U, the self-cleavage came out at 0.557.
In the case of U9G A44U it was 0.388.
The figure for U9G A44C is 0.39; for U9G A44G it is 1.07; for U9A G18A it is 0.497.
In the case of U9A G18U it was 0.546; in that of U9A G18C, 0.39.
For the variant U9A U24G, the self-cleavage amounted to 0.919.
The figure for U9A U24A is 1.2.
In the case of U9A U24C it was 1.38.
As for U9C G17C, the self-cleavage turned out to be 0.354.
As to U9C G17U, the self-cleavage stood at 0.897.
In the case of U9C G17A, the self-cleavage amounted to 0.754.
The figure for U9A A42C is 0.32; for U9A A42G it is 0.218; for U9A A42U it is 0.332.
In the case of U9G G31A it was 1.14; in that of U9G G31U, 0.51.
The figure for U9G G31C is 0.754; for G8U U12G it is 0.993.
U9G U13C: the self-cleavage worked out at 1.04.
For the variant U9G U13G, the self-cleavage is 0.802.
In the case of U9G U13A it was 1.93; in that of U9G, 0.989; in that of U9A, 1.02.
In the case of U9C it was 1.02; in that of U9C U19G, 0.525; in that of U9C U19C, 0.514.
The figure for U9C U19A is 0.286.
Take U9A A37C: the self-cleavage was determined as 1.02.
Regarding U9A A37G, the self-cleavage worked out at 1.
In the case of U9A A37U it was 0.593; in that of U9G C29G, 0.534; in that of U9G C29U, 0.713.
With U9G C29A, the self-cleavage amounted to 0.655.
With U9G G25U, the self-cleavage was found to be 0.242.
The figure for U9G G25C is 0.383; for U9G G25A it is 0.205.
In the case of U9G A26G it was 0.345.
Turning to U9G A26U, the self-cleavage is 0.344.
The figure for U9G A26C is 0.32; for U9G C43A it is 0.271; for U9G C43U it is 0.339.
The figure for U9G C43G is 0.455.
The figure for U9C U12C is 0.982; for U9C U12G it is 1.1; for U9C U12A it is 1.15.
Take G8U U24C: the self-cleavage was 0.829.
The figure for G8U U24G is 1.11.
The figure for G8U U24A is 1.24; for U9C A23C it is 0.283.
For the variant U9C A23U, the self-cleavage came to 0.358.
The figure for U9C A23G is 0.361; for U9G G17U it is 0.316; for U9G G17A it is 0.456.
In the case of U9G G17C it was 0.32; in that of U9C C15U, 0.863; in that of U9C C15G, 0.49.
In the case of U9C C15A it was 0.956; in that of U9C U13C, 0.843; in that of U9C U13A, 1.18.
On to U9C U13G, for which the self-cleavage worked out at 0.946.
The figure for U9A C43G is 0.458.
The figure for U9A C43A is 0.333.
The figure for U9A C43U is 0.337.
Regarding U9A A40C, the self-cleavage is 0.49.
Turning to U9A A40U, the self-cleavage was determined as 0.367.
With U9A A40G, the self-cleavage came out at 0.349.
In the case of U9A C38U it was 1.23; in that of U9A C38G, 0.682; in that of U9A C38A, 0.755.
For the variant U9C A42G, the self-cleavage stood at 0.332.
On to U9C A42C, for which the self-cleavage came out at 0.351.
In the case of U9C A42U it was 0.345; in that of U9C A34G, 0.946.
The figure for U9C A34C is 0.94.
For U9C A34U, the self-cleavage is 0.65.
Regarding U9C A41U, the self-cleavage stood at 0.34.
For the variant U9C A41C, the self-cleavage stood at 0.407.
On to U9C A41G, for which the self-cleavage was determined as 0.356.
In the case of U9G G33U it was 0.788.
In the case of U9G G33A it was 0.988; in that of U9G G33C, 0.78.
In the case of U9G A40G it was 0.366; in that of U9G A40C, 0.423; in that of U9G A40U, 0.304.
For the variant U9G A41C, the self-cleavage was determined as 0.294.
In the case of U9G A41U it was 0.306; in that of U9G A41G, 0.303.
U9G A23U: the self-cleavage was 0.366.
With U9G A23C, the self-cleavage is 0.448.
The figure for U9G A23G is 0.385.
The figure for U9A A41C is 0.455.
In the case of U9A A41G it was 0.357; in that of U9A A41U, 0.37.
With U9A C11U, the self-cleavage was determined as 0.572.
For U9A C11G, the self-cleavage worked out at 1.57.
Regarding U9A C11A, the self-cleavage amounted to 1.19.
In the case of U9C G39U it was 0.264; in that of U9C G39A, 0.313; in that of U9C G39C, 0.434.
U9A G22U: the self-cleavage was 0.311.
The figure for U9A G22C is 0.359; for U9A G22A it is 0.282.
In the case of U9C G36A it was 0.511.
The figure for U9C G36C is 0.82; for U9C G36U it is 0.683.
